Results on seven molecules are retold here after PMC6393309 (Nucleic Acids Research, 2019).

By Kd is commonly meant the free concentration of one partner at which half of the binding sites on the other are occupied at equilibrium, for simple one-to-one binding. High values mean weaker binding, low ones tighter binding. The term stoichiometry N denotes a count of units in the complex or per binding partner.

B1: λ Exonuclease, full-length, untagged (enzyme)
chain: MTPDIILQRTGIDVRAVEQGDDAWHKLRLGVITASEVHNVIAKPRSGKKWPDMKMSYFHTLLAEVCTGVAPEVNAKALAWGKQYENDARTLFEFTSGVNVTESPIIYRDESMRTACSPDGLCSDGNGLELKCPFTSRDFMKFRLGGFEAIKSAYMAQVQYSMWVTRKNAWYFANYDPRMKREGLHYVVIERDEKYMASFDEIVPEFIEKMDEALAEIGFVFGEQWR

One series deals with T1, λ Exo – Redβ complex (Escherichia phage lambda, UniProt P03698).
T1 sequence (P03698 1-261): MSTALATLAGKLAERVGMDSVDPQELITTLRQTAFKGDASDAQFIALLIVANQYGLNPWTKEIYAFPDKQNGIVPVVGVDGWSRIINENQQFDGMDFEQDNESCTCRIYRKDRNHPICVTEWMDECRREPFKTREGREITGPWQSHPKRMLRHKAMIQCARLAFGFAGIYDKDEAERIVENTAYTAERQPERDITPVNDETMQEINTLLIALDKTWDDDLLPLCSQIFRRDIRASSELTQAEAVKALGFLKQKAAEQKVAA
Briefly: Fluorescence anisotropy binding of SSB-Ct peptide to λ Exo–Redβ complex. Set-up: species or system Bacteriophage λ.

The next series has as its target T2, Redβ (Escherichia phage lambda, UniProt P03698).
T2 sequence (P03698 1-261): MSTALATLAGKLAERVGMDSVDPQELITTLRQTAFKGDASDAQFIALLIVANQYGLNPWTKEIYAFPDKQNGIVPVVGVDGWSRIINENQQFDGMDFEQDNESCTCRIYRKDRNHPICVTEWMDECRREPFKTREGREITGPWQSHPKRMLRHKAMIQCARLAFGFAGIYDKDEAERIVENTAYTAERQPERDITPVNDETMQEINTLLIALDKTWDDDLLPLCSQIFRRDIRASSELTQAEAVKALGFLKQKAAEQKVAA
Put plainly: Fluorescence anisotropy binding of SSB-Ct peptide to Redβ. The settings on record: 20 nM FAM-WMDFDDDIPA, full-length Redβ, pH 7.5, 25°C. Set-up: species or system Bacteriophage λ.

The series “crystal structure” deals with the molecule itself. Put plainly: crystal structure.
For series [1] the following is noted: cited from earlier work.
The next series concerns λ Exo. As to conditions: Ni-spin pull down; cited from earlier work.
For series [2] the following is noted: cited from earlier work. This is another data set of the same source.
Series [3] deals with T3, 6His-tagged Escherichia coli exonuclease I (Escherichia coli, UniProt P04995 1-475).
T3 sequence: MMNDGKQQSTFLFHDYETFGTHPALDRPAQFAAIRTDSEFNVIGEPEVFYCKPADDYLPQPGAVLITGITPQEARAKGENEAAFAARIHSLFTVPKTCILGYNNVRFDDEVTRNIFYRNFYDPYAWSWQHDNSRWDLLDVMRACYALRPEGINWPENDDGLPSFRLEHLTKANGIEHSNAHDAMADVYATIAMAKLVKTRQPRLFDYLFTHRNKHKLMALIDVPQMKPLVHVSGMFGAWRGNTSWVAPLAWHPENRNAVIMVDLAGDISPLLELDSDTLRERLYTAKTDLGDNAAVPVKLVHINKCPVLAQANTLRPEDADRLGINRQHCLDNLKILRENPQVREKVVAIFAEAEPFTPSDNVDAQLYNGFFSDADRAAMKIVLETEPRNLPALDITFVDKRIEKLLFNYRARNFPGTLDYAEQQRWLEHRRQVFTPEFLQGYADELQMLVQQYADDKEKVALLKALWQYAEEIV
Put plainly: fluorescence polarisation. On the technique in general: In fluorescence polarisation assays a small probe gives low polarisation when free and higher when bound to something large.

For series [4], the target named is T4, Redβ, full-length, untagged (wild type) (bacteriophage λ, UniProt P03698 1-261).
T4 sequence: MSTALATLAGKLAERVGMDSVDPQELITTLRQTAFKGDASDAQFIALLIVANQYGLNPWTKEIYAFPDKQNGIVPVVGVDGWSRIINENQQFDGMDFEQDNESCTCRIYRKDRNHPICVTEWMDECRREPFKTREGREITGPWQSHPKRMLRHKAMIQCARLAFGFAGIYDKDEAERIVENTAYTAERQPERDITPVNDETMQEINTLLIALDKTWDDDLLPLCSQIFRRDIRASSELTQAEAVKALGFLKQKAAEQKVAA
Put plainly: fluorescence polarisation.

Series [5] has as its target T5, complex of λ Exo and full-length untagged Redβ (bacteriophage λ, UniProt P03697;P03698).
T5 sequence 1: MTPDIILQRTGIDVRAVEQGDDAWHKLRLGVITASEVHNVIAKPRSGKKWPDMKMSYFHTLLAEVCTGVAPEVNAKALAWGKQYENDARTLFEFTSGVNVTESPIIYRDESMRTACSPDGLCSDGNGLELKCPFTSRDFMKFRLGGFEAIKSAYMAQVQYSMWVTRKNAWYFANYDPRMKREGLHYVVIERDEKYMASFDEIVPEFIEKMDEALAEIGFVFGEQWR
T5 sequence 2: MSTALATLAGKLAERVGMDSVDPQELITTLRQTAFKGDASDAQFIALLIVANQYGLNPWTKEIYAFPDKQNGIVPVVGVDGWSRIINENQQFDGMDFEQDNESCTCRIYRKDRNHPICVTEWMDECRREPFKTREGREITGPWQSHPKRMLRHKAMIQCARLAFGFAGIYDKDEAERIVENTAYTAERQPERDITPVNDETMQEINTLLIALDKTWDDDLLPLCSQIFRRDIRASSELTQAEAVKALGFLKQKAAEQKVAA
Put plainly: fluorescence polarisation.

A further series relates to ssDNA or dsDNA. The settings on record: cited from earlier work.
Series [6] concerns the target B1. Briefly: crystal structure.
The test system of a further series is SSB. The settings on record: cited from earlier work.

“And” between values parts separate entries of the source, which are not always exact repeats. Equal entries are not always repeated. “Also recorded” adds a separate entry of the source. Residues, ends and D or L forms follow the SMILES beside them. No end group written: not given here. *: point of attachment. 5FAM = O=C1OC2(c3ccc(O)cc3Oc3cc(O)ccc32)c2ccc(C(=O)*)cc21

At λ Exo – Redβ complex, `CC[C@H](C)[C@H](NC(=O)[C@H](CC(=O)O)NC(=O)[C@H](CC(=O)O)NC(=O)[C@H](CC(=O)O)NC(=O)[C@H](Cc1ccccc1)NC(=O)[C@H](CC(=O)O)NC(=O)[C@H](CCSC)NC(=O)[C@H](Cc1c[nH]c2ccccc12)NC(=O)c1ccc2c(c1)C(=O)OC21c2ccc(O)cc2Oc2cc(O)ccc21)C(=O)N1CCC[C@H]1C(=O)N[C@@H](Cc1ccccc1)C(=O)O` [SSB-Ct, FAM-WMDFDDDIPF] (5FAM-WMDFDDDIPF-OH) gave a Kd of 12.8 ± 3.5 µM. On to “FAM-WMDFDDDIPA [SSB-Ct peptide with the F177A mutation]”, for which the “binding of F177A SSB-Ct peptide to Redβ” value on Redβ is recorded as “completely failed to interact; also recorded: fails to bind”.

Turning to B1, the “stoichiometry N” value in “crystal structure” came to 3.

B2: Redβ^1–250: variant of Redβ lacking the C-terminal 11 residues (protein)
chain: MSTALATLAGKLAERVGMDSVDPQELITTLRQTAFKGDASDAQFIALLIVANQYGLNPWTKEIYAFPDKQNGIVPVVGVDGWSRIINENQQFDGMDFEQDNESCTCRIYRKDRNHPICVTEWMDECRREPFKTREGREITGPWQSHPKRMLRHKAMIQCARLAFGFAGIYDKDEAERIVENTAYTAERQPERDITPVNDETMQEINTLLIALDKTWDDDLLPLCSQIFRRDIRASSELTQAEAVKALGFL
Take B2: in [1], the ssDNA recombination entry is recorded as “completely disrupts”. In addition, the “interaction with λ Exo” value in the series with λ Exo is listed as “completely disrupts the interaction with λ Exo”. Moreover, in [2], the dsDNA recombination entry was “completely disrupts”.

B3: SSB C-terminal peptide, fluorescein-labeled (FAM-WMDFDDDIPF) (peptide)
peptide: {FAM}-WMDFDDDIPF
In the case of B3, the Kd in series [3] is 0.098 µM; in [4], 10.6 µM; in series [5], 12.8 µM and 12 µM.

B4: Redβ C-terminal domain (residues 183-261) (domain or fragment)
chain: AYTAERQPERDITPVNDETMQEINTLLIALDKTWDDDLLPLCSQIFRRDIRASSELTQAEAVKALGFLKQKAAEQKVAA
Regarding B4, the “interaction with ssDNA or dsDNA” value in the series on ssDNA or dsDNA is given as “no interaction with ssDNA or dsDNA”. Moreover, in the series with λ Exo, the “interaction with λ Exo” value is reported as “clear interaction”. Besides, the binding result in [6] is recorded as “binds”.

B5: YbcN: Orf homolog from E. coli cryptic prophage DLP12 (protein, UniProt Q47269 1-151, looked up)
Uncharacterized protein YbcN: MNLSQDGIKLHRGNFTAIGRQIQPYLEEGKCFRMVLKPWREKRSLSQNALSHMWYSEISEYLISRGKTFATPAWVKDALKHTYLGYETKDLVDVVTGDITTIQSLRHTSDLDTGEMYVFLCKVEAWAMNIGCHLTIPQSCEFQLLRDKQEA
B5: the “requirement of SSB C-tail for interaction with SSB” value in the series on SSB is on record as “does require the C-tail for its interaction with SSB”.
